# B1: lactoferrin: iron-binding cationic glycoprotein belonging to the family of transferrins; bovine lactoferrin used in the Examples (protein, UniProt P24627 20-708, looked up)
# Lactotransferrin: APRKNVRWCTISQPEWFKCRRWQWRMKKLGAPSITCVRRAFALECIRAIAEKKADAVTLDGGMVFEAGRDPYKLRPVAAEIYGTKESPQTHYYAVAVVKKGSNFQLDQLQGRKSCHTGLGRSAGWIIPMGILRPYLSWTESLEPLQGAVAKFFSASCVPCIDRQAYPNLCQLCKGEGENQCACSSREPYFGYSGAFKCLQDGAGDVAFVKETTVFENLPEKADRDQYELLCLNNSRAPVDAFKECHLAQVPSHAVVARSVDGKEDLIWKLLSKAQEKFGKNKSRSFQLFGSPPGQRDLLFKDSALGFLRIPSKVDSALYLGSRYLTTLKNLRETAEEVKARYTRVVWCAVGPEEQKKCQQWSQQSGQNVTCATASTTDDCIVLVLKGEADALNLDGGYIYTAGKCGLVPVLAENRKSSKHSSLDCVLRPTEGYLAVAVVKKANEGLTWNSLKDKKSCHTAVDRTAGWNIPMGLIVNQTGSCAFDEFFSQSCAPGADPKSRLCALCAGDDQGLDKCVPNSKEKYYGYTGAFRCLAEDVGDVAFVKNDTVWENTNGESTADWAKNLNREDFRLLCLDGTRKPVTEAQSCHLAVAPNHAVVSRSDRAAHVKQVLLHQQALFGKNGKNCPDKFCLFKSETKNLLFNDNTECLAKLGGRPTYEEYLGTEYVTAIANLKKCSTSPLLEACAFLTR
# Key:
# [1] = tested on: Lactobacilli at the level of the vaginal flora; conditions: vaginal use; cited from earlier work
# [2] = tested on: Lactobacillus jensenii 25258; assay: 96-well chequerboard growth assay (optical density over 48 hours), prebiotic effect; type: cell-based; conditions: bacteria exposed to the ingredient alone; FIG. 5
# Procedure: A stock solution of 8 mg/mL bovine lactoferrin, was prepared by adding the appropriate amount of sterile MilliQ water to the weighted compound, followed by vortexing and filter-sterilizing. A stock solution of 2 mg/ml of each of the carrageenans (κ-, I-, λ-) was prepared by adding the appropriate amount of sterile MilliQ water to the weighted compound, incubated at 37° C. for 30 minutes, followed by vortexing until clear, and filter-sterilizing. […] The stock solution of lactoferrin was serially diluted in a broth-based media (appropriate for growth of the particular microorganism to be assayed) along the rows of the microtiter plate. The stock solution of carrageenan (κ-, I-, or λ-) was serially diluted in a broth-based media (appropriate for growth of the particular microorganism) along the columns of the microtiter plate. The final volume of media in each well was 0.1 mL. Each well containing lactoferrin and/or carrageenan (κ-, I-, or λ-) was inoculated with log-phase bacteria/yeast at a concentration of 5×10^5 colony forming units (CFU)/well. […] After addition of the relevant microorganism, plates were sealed with optical quality film, and incubated within the plate reader at the appropriate growth temperature for the microorganism being assayed. The optical density (OD) was recorded every 15 minutes for a period of 48 hours to evaluate the microorganism growth and biomass formation.
molecule,measurement,setting,value
B1,presence of Lactobacilli at the level of the vaginal flora,[1],able to increase the presence of Lactobacilli
same,viability / phase of the bacterial growth cycle of L. jensenii 25258,[2],enters the death phase

# — patent US20250249076A1, “Composition Comprising a Combination of Lactoferrin and a Sulphated Polysaccharide” (Reckitt Benckiser Health Limited, priority 2022, published 2025)
